Experimental data: patent US20210246218A1 (LYVGEN BIOPHARMA SUZHOU, published 2021)
“And” between values parts separate entries of the source, which are not always exact repeats. Equal values may be shown once.

Assays:
[1] = target: T1, human CD137 on cells (human, UniProt Q07011 24-255); experiment: flow cytometry on CHO cells over-expressing human CD137; average, n=6
T1 construct: whole, on cells; also called CHO-human CD137; CHO cells over-expressing human CD137
Method: (§1) CHO cells over-expressing human or cynomolgus monkey CD137 and CHO parental cells were harvested by centrifugation at 1000 g for 3 minutes. The cells were resuspended in ice cold assay buffer at 2*10\hat{ }6/mL and transferred to 96-well V-bottom plate with 100 μL/well. […] The plate was mixed and incubated in the dark for 2 hours at 4° C. The cells were washed 3 times by centrifugation at 1000 g for 3 min and resuspended in ice cold assay buffer containing goat F(ab′)₂ anti-human IgG-Fc (PE), 100 μL/well. The plate was incubated in the dark for another 1 hour at 4° C. The cells were washed 2 times by centrifugation at 1000 g for 3 min and resuspended in ice cold assay buffer containing 2% PFA. The cells were then subjected to the flow cytometer immediately.
(§2) Mean fluorescence intensity (MFI) was calculated from the total cell population in the FCM experiments. Graphpad 7.0, “[Agonist] vs. response—Variable slope (four parameters)” was used to plot the binding MFI in dose response and to calculate FCM binding EC₅₀ values.

[2] = target: T2, recombinant human CD137 receptor protein (human, UniProt Q07011 24-186); experiment: ELISA, huCD137 coated, clone 3712 titrated; full sigmoid, plateau about 1.5
T2 construct: Coated on ELISA plates; also called recombinant human CD137 protein
Method: For the data shown in FIGS. 16C-D, chimeric CD137 receptor protein samples were diluted in DPBS to 5 μg/mL and then coated onto an ELISA plate (Corning, Catalog number: 9018, high binding) at 50 μL (0.25 μg) per well, and incubated at 4° C. overnight. The plate was decanted and washed once; assay diluent was added at 200 μL/well. After a 1-hour incubation at room temperature, the plate was washed with PBST one time. […] The plate was incubated 1 hour at room temperature and then washed three times with PBST. Goat anti-human IgG-H+L HRP-conjugated at 1:100,000 dilution or goat anti-mouse IgG (H+L) secondary antibody, HRP, 10 at 1:50,000 dilution was added to the plate at 100 μL/well. The plate was incubated 1 hour at room temperature followed by washing with PBST four times. The TMB substrate solution was added 100 μL/well. The color was permitted to develop for 15 minutes and then 100 μL/well 2N H2SO4 was added to terminate the reaction. Absorbance at 450 nm and 620 nm was determined by a Tecan F200 Pro reader.

[3] = target: T3, CD137 protein (UniProt Q07011 24-186, limits assumed); experiment: competition ELISA with CD137L: CD137 receptor coated, antibody titrated, CD137L added; A450-A620 falls from about 1.25 to about 0.64 (midpoint of an inhibition curve, called EC50 in the sheet's table)
T3 construct: also called CD137 antigen; CD137 receptor
Method: CD137 receptor was diluted in DPBS to 1 μg/mL, and then coated onto an ELISA plate (Corning, Catalog number: 9018, high binding) with a volume of 50 μL (0.05 μg) per well, and incubated at 4° C. overnight. The plate was decanted and washed once; assay diluent was added 200 μL/well. […] The diluted CD137 receptor was added to the assay plate, 50 μL/well, in duplicate. The plate was incubated one hour at room temperature. […] The plate was incubated one hour at room temperature and then washed three times with PBST. Goat anti-human IgG-H+L HRP conjugated at 1:100,000 20 dilution was added to the plate at 100 μL/well. The plate was then incubated one hour at room temperature followed by washing with PBST four times. The TMB substrate solution was added at 100 μL/well. The color was allowed to develop for 15 minutes, and was stopped with 100 μL/well 2N H2SO4. Absorbance at 450 nm and 620 nm was determined by a Tecan F200 Pro reader.

[4] = target: T4, human FcγRI on CHO-K1 cells (human, UniProt P12314 16-374); experiment: flow cytometry on CHO-huFcγRIA cells, PE anti-human Fc F(ab')2
T4 construct: whole, on cells; also called CHO-K1-huFcγRI; CHO-huFcγRIA
Method: The plate was mixed and incubated in the dark for 2 hours at 4° C. […] The plate was incubated in the dark for another 1 hour at 4° C. The cells were washed 2 times by centrifugation at 1000 g for 3 min and resuspended in ice cold assay buffer containing 2% PFA.

[5] = target: T2, recombinant human CD137 receptor protein; experiment: ELISA, clone 3712-IgG1v coated, huCD137 titrated (EC50 is a concentration of the CD137 protein); full sigmoid, plateau about 2.2
[6] = target: T5, Ly110; experiment: ELISA, clone 3712-IgG1v coated, CD137 protein titrated (EC50 is a concentration of the CD137 protein); full sigmoid, plateau about 1.9
T5 chain: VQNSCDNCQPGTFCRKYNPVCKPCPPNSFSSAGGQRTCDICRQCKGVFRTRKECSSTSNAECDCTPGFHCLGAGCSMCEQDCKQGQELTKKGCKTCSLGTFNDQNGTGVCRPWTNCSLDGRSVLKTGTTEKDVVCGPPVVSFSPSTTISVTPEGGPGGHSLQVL
Method: The plate was decanted and washed once; assay diluent was added 200 μL/well. After one-hour incubation at room temperature, the plate was washed with PBST one time. CD137 receptor human/mouse chimeras were diluted in assay diluent to 100 or 10 μg/mL, and then a 4-fold serial dilution in assay diluent for 11 points to final concentrations of 100000, 25000, 6250, 1562.5, 390.63, 97.66, 24.41, 6.10, 1.53, 0.38 and 0.095 ng/mL or 10000, 2500, 625, 156.25, 39.06, 9.77, 2.44, 0.61, 0.15, 0.038 and 0.0095 ng/mL. The diluted CD137 receptor was added to the assay plate, 50 μL/well, in duplicate. The plate was incubated one hour at room temperature and then washed three times with PBST. Goat anti-human IgG-H+L HRP conjugated at 1:100,000 20 dilution was added to the plate at 100 μL/well. The plate was then incubated one hour at room temperature followed by washing with PBST four times. The TMB substrate solution was added at 100 μL/well. The color was allowed to develop for 15 minutes, and was stopped with 100 μL/well 2N H2SO4. Absorbance at 450 nm and 620 nm was determined by a Tecan F200 Pro reader.

[7] = target: T6, cynomolgus monkey CD137 on cells (cynomolgus monkey, UniProt A9YYE7 24-254); experiment: flow cytometry on CHO-cynomolgus monkey CD137 cells, PE anti-human IgG-Fc
T6 construct: whole, on cells; also called CHO-cynomolgus monkey CD137
Method: as §1, §2

B1: Clone 3712-IgG1v (IgG1v/kappa) (antibody)
heavy: QVQLVQSGAEVKKPGASVKVSCKASGYTFAGFEMHWVRQAPGQGLEWMGAIDPKTGGTDYNQKFKDRVTMTRDTSISTAYMELSRLRSDDTAVYYCARDLGYFDVWGQGTLVTVSSASTKGPSVFPLAPSSKSTSGGTAALGCLVKDYFPEPVTVSWNSGALTSGVHTFPAVLQSSGLYSLSSVVTVPSSSLGTQTYICNVNHKPSNTKVDKKVEPKSCDKTHTCPPCPAPELLGPSVFLFPPKPKDTLMISRTPEVTCVVVDVEHEDPEVKFNWYVDGVEVHNAKTKPREEQYNSTYRVVSVLTVLHQDWLNGKEYKCKVSNKALPAPIEKTISKAKGQPREPQVYTLPPSREEMTKNQVSLTCLVKGFYPSDIAVEWESNGQPENNYKTTPPVLDSDGSFFLYSKLTVDKSRWQQGNVFSCSVMHEALHNHYTQKSLSLSPGK
light: DIQMTQSPSSLSASVGDRVTITCRASQDIRSNLNWYQQKPGGAVKLLIYYTSRLHSGVPSRFSGSGSGTDYTLTISSLQPEDFATYFCQQSEKLPRTFGGGTKVEIRRTVAAPSVFIFPPSDEQLKSGTASVVCLLNNFYPREAKVQWKVDNALQSGNSQESVTEQDSKDSTYSLSSTLTLSKADYEKHKVYACEVTHQGLSSPVTKSFNRGEC
notes: copies: 2 + 2
In the case of B1, the EC50 [1] is reported as 0.35 nM and 0.0497 µg/mL, the EC50 [2] is reported as 0.0495 µg/mL and the IC50 [3] is reported as 0.0643 µg/mL. For the same binder, the binding result [4] was “no binding (tested: 10 µg/mL)”, the EC50 [5] was 0.0669 µg/mL and the EC50 [6] was 0.101 µg/mL. For the same binder, the “EC50 (read off the curve)” value [7] was ~0.03 µg/mL.
